Source: PMC4839367

Biological target: Ad5D24 oncolytic adenovirus (viral particle, capsid) (human adenovirus serotype 5) (UniProt P04133)
Assay: SPR

UniProt P04133, sequence (P04133 whole entry, looked up): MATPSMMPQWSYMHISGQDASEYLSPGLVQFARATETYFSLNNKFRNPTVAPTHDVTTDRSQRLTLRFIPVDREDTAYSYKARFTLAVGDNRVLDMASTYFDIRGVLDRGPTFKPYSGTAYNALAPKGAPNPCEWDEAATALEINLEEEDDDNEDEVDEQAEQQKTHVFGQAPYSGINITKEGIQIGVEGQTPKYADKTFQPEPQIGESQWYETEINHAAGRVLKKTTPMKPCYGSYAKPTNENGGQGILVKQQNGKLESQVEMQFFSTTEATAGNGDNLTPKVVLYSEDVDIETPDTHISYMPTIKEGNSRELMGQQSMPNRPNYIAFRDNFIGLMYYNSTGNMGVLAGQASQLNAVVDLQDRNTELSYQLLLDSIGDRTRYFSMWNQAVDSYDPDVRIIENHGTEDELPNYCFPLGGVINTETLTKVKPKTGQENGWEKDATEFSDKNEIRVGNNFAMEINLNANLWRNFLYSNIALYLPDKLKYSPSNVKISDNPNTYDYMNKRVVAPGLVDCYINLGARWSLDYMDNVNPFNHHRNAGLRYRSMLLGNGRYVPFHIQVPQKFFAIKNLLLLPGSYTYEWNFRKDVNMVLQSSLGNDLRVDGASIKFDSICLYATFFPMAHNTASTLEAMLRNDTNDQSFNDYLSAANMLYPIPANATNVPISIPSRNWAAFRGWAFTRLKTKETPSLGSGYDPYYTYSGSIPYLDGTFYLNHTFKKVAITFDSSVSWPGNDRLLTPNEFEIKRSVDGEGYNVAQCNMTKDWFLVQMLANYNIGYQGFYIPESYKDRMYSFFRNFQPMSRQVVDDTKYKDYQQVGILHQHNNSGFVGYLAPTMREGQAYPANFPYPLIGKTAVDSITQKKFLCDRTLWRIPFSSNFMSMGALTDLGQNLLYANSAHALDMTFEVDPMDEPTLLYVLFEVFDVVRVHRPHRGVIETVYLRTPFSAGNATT

Which Kd does the source give for polyK-SIINFEKL (peptide) here?
The Kd was 2.88 µM.
